For one molecule, EC50 results are on record in patent publication US11912763 (dated 2024).

Assay [1] has as its target T1, human CLDN18.2 (human, UniProt P56856). Put plainly: ELISA.
Assay [2] has as its target T1, human CLDN18.2. Nature of the assay: ELISA. This is another data set of the same source.
In assay [3] the target is T1, human CLDN18.2. Nature of the assay: ELISA, after 14 days at 37C.

B1: LB321 CLDN18.2 arm (antibody)
chain 1: QVQLVQSGAEVKKPGSSVKVSCKASGYAFSNYLIEWVKQAPGQGLEWIGLINPGSGGTNYNEKFKGKATITADKSTSTAYMELSSLRSEDTAVYYCARVYYGNSFAYWGQGTLVTVSS
chain 2: DIVMTQSPDSLAVSLGERATISCKSSQSLLNSGNQKNYLTWYQQKPGQPPKLLIYWASTRESGVPDRFSGSGSGTDFTLTISSLQAEDVAVYYCQNDYFYPFTFGQGTKLEIK
Broadly, the EC50 is the concentration that produces a half-maximal response. A higher EC50 goes with lower potency in that assay. For the molecule B1, the EC50 in assay [1] was found to be 0.366 nM; in assay [2], 0.99 nM; in assay [3], 10.1 nM.
